According to patent publication US20210230244A1 (NATIONAL INSTITUTE OF IMMUNOLOGY, published 2021):
Bridge positions count the residues as written; N and C are the ends. Ends that are not written are not given here.

Molecular target: T1, Abeta 1-42 peptide
T1 construct: Used at 100 micromolar in PBS pH 7.4 at 37 C, where it aggregates into oligomers and fibrils, so it was not a defined monomer in the assays; also called Abeta42; Abeta 42
Assay: Glu-OC (25 ng-0.1 ng) incubated with 100 micromolar Abeta42; A11 reactivity and AFM

T1 sequence (peptide, as listed by the source): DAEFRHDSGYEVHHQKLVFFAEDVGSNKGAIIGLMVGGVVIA

B1: undercarboxylated osteocalcin (peptide)
peptide: YLYQWLGAPVPYPDPLEPRREVCELNPDCDELADHIGFQEAYRRFYGPV
modifications: disulfide 23-29
notes: also called Glu-OC; uncarboxylated osteocalcin
  binding result: binds
